In patent US20020185139A1, “Methods for reducing postoperative intraocular pressure” (priority 2001, published 2002):

Test system: corneal endothelium
Set-up: species or system rabbits
Conditions: rabbit, in vivo
Description: In order to investigate the effect of hyaluronidase on the postoperative endothelium, the eyes of the rabbits from Experiment 1 were studied by performing vital staining of the corneal endothelium of the rabbits.

## hyaluronidase
  endothelial damage (vital staining of corneal endothelium): no endothelial damage
